The target of one assay is T1, MALT1-R149A (bio-tagged) (human, UniProt Q9UDY8 1-824, Avi-tag biotinylated in vivo by co-expressed BirA).
T1 construct: also called R149A mutant
T1 sequence (looked up): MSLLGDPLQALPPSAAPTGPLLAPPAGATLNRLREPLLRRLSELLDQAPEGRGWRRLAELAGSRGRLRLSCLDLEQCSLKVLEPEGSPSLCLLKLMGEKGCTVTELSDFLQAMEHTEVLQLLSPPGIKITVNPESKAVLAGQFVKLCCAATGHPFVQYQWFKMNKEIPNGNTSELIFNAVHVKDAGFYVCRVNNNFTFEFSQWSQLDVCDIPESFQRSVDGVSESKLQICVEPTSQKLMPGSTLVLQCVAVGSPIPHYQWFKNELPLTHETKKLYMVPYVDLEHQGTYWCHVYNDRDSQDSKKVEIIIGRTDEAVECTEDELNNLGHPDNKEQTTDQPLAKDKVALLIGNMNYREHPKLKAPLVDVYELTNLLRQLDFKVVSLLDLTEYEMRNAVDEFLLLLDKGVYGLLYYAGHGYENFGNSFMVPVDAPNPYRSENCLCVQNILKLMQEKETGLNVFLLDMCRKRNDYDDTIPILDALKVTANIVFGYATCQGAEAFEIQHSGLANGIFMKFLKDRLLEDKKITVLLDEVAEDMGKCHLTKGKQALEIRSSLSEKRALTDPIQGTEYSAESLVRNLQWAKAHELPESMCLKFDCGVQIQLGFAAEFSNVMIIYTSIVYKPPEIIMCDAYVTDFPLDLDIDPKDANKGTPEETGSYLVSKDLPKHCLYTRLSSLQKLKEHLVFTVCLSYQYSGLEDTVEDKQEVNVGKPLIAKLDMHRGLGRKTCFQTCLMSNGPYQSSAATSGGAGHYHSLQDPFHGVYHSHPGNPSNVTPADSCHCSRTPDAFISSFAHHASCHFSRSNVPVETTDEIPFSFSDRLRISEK
As to the kind of experiment: immunoblots of bio-IPs from Jurkat cells with stable expression. Background: In western blotting, separated proteins are transferred to a membrane and probed.

For the next assay, the target named is T2, MALT1-C464A (bio-tagged) (human, UniProt Q9UDY8 1-824).
T2 construct: also called C464A mutant; C464 mutant
T2 sequence (looked up): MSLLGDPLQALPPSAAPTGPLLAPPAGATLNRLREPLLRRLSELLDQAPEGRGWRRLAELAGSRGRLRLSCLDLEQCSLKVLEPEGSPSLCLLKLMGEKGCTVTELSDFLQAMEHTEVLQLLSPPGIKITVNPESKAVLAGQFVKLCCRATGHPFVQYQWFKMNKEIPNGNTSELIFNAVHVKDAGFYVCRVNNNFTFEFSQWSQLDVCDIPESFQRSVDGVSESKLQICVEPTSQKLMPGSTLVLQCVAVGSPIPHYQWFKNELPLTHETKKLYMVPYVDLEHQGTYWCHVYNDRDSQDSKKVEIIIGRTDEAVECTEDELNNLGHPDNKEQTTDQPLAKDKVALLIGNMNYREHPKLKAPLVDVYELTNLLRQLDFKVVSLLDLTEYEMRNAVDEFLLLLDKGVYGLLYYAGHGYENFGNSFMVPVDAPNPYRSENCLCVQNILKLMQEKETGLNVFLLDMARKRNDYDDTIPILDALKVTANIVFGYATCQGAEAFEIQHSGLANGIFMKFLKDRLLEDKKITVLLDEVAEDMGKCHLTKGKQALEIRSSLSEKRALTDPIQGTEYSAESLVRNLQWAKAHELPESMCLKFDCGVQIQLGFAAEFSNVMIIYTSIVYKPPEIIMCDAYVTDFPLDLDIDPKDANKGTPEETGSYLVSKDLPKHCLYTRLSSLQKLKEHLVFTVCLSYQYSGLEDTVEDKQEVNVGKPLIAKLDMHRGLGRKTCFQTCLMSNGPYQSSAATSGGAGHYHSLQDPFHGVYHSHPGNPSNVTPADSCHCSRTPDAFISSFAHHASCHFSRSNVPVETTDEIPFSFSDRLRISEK
The assay is described as above.

B1: TRAF6 (other, UniProt Q9Y4K3 1-522, looked up)
chain: MSLLNCENSCGSSQSESDCCVAMASSCSAVTKDDSVGGTASTGNLSSSFMEEIQGYDVEFDPPLESKYECPICLMALREAVQTPCGHRFCKACIIKSIRDAGHKCPVDNEILLENQLFPDNFAKREILSLMVKCPNEGCLHKMELRHLEDHQAHCEFALMDCPQCQRPFQKFHINIHILKDCPRRQVSCDNCAASMAFEDKEIHDQNCPLANVICEYCNTILIREQMPNHYDLDCPTAPIPCTFSTFGCHEKMQRNHLARHLQENTQSHMRMLAQAVHSLSVIPDSGYISEVRNFQETIHQLEGRLVRQDHQIRELTAKMETQSMYVSELKRTIRTLEDKVAEIEAQQCNGIYIWKIGNFGMHLKCQEEEKPVVIHSPGFYTGKPGYKLCMRLHLQLPTAQRCANYISLFVHTMQGEYDSHLPWPFQGTIRLTILDQSEAPVRQNHEEIMDAKPELLAFQRPTIPRNPKGFGYVTFMHLEALRQRTFIKDDTLLVRCEVSTRFDMGSLRREGFQPRSTDAGV
notes: Co-precipitated from lysates of human cell lines
Turning to B1, the binding result with MALT1-R149A (bio-tagged) and in the assay with MALT1-C464A (bio-tagged) was “binds” each time.
